Results on 68 sequences are retold here after the supplement of paper PMC10724198.

± gives the standard deviation of the averaged measurements.

This data set deals with Saccharomyces cerevisiae. The data set can be described thus: protein stability index of tFT-peptide fusion (C-terminal peptide) (PSI (0-1 scale)); higher = more stable (slower turnover). The conditions noted are these: temperature: 30 C. As for the experimental part: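 MPS profiling in S. cerevisiae of the yeast C-terminome library: the last 12 aa of each annotated ORF are fused to the C-terminus of a sfGFP-mCherry timer, after a GGGS linker. Cells are FACS-sorted into 8 mCherry/sfGFP bins and deep-sequenced. PSI runs from 0 (unstable) to 1 (stable); wild type and das1Δ backgrounds, two technical replicates each.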

Setting [1] is: genetic background: das1 deletion.

The sequence AADPLSNDALFK [BRX1 C-terminal 12 aa] showed a protein stability index under setting [1] of 0.733 ± 0.063 and a protein stability index (genetic background: wild type) of 0.737 ± 0.12.

In the case of AADRDNKKDEST [XRN1 C-terminal 12 aa], the protein stability index is, setting by setting: under setting [1], 0.6981 ± 0.0034; (genetic background: wild type) 0.668 ± 0.057.

In turn, AAGKANKQFAKF [RPS11A C-terminal 12 aa] yielded a protein stability index under setting [1] of 0.8136 ± 0.0019 and a protein stability index (genetic background: wild type) of 0.807 ± 0.042.

For the sequence AAIPVILAKIKV [SHE4 C-terminal 12 aa], the protein stability index stood at 0.502 ± 0.019 under setting [1] and 0.56 ± 0.13 (genetic background: wild type).

Take ACYVQLKKSGAF [COX8 C-terminal 12 aa]: the protein stability index by setting is: under setting [1], 0.6966 ± 0.0035; (genetic background: wild type) 0.669 ± 0.024.

For the sequence AGATTSRFIPLK [RPS15 C-terminal 12 aa], the protein stability index is, setting by setting: under setting [1], 0.685 ± 0.023; (genetic background: wild type) 0.652 ± 0.01.

With AGTDKNTHPSSQ [SNT2 C-terminal 12 aa], the protein stability index is, setting by setting: under setting [1], 0.692 ± 0.0098; (genetic background: wild type) 0.694 ± 0.019.

Consider AIEEGAGAFLLS [UFD4 C-terminal 12 aa], for which the protein stability index came out at 0.706 ± 0.03 under setting [1] and 0.6771 ± 0.0053 (genetic background: wild type).

For AIFTAFTQVVLI [TOH1 C-terminal 12 aa], the protein stability index is, setting by setting: under setting [1], 0.4858 ± 0.0044; (genetic background: wild type) 0.4983 ± 0.00094.

As to AIHLEAVSLVDC [CIS3 C-terminal 12 aa], the protein stability index came out at 0.599 ± 0.011 under setting [1] and 0.611 ± 0.024 (genetic background: wild type).

With AKELISAIFFGE [TAF6 C-terminal 12 aa], the protein stability index reads like this: under setting [1], 0.698 ± 0.057; (genetic background: wild type) 0.6614 ± 0.0044.

AKGLAKTEIANQ [GIR2 C-terminal 12 aa]: the protein stability index by setting is: under setting [1], 0.686 ± 0.018; (genetic background: wild type) 0.656 ± 0.013.

On to AKPAYHWQTRYR [KIN3 C-terminal 12 aa], for which the protein stability index is, setting by setting: under setting [1], 0.703 ± 0.021; (genetic background: wild type) 0.665 ± 0.017.

As for AKVYFLGRDSSI [NDE1 C-terminal 12 aa], the protein stability index stood at 0.708 ± 0.016 under setting [1] and 0.741 ± 0.076 (genetic background: wild type).

As for ALENENKRKAKL [CAT2 C-terminal 12 aa], the protein stability index reads like this: under setting [1], 0.79 ± 0.015; (genetic background: wild type) 0.798 ± 0.11.

As to ALGLAGAVMMLL [SPI1 C-terminal 12 aa], the protein stability index was found to be 0.693 ± 0.013 under setting [1] and 0.746 ± 0.025 (genetic background: wild type).

Turning to ALQKQIKNALPC [PTP2 C-terminal 12 aa], the protein stability index runs as follows: under setting [1], 0.694 ± 0.024; (genetic background: wild type) 0.69 ± 0.029.

With “ALSCLGHSKIFI [YML094C-A C-terminal 12 aa]”, the protein stability index under setting [1] is 0.7082 ± 0.0041 and the protein stability index (genetic background: wild type) is 0.706 ± 0.012.

Consider ALSKDGIYTITN [PAU13 C-terminal 12 aa], for which the protein stability index by setting is: under setting [1], 0.706 ± 0.027; (genetic background: wild type) 0.679 ± 0.014.

As to AMDYAISIENIV [RPN12 C-terminal 12 aa], the protein stability index was found to be 0.665 ± 0.015 under setting [1] and 0.646 ± 0.015 (genetic background: wild type).

As to ANFECSSWKFAS [EFM5 C-terminal 12 aa], the protein stability index runs as follows: under setting [1], 0.7167 ± 0.0049; (genetic background: wild type) 0.646 ± 0.0085.

In the case of APPKLNNSSESE [STE23 C-terminal 12 aa], the protein stability index under setting [1] turned out to be 0.681 ± 0.0074 and the protein stability index (genetic background: wild type) was 0.674 ± 0.0091.

Regarding AQGGFAQWATGQ [APS3 C-terminal 12 aa], the protein stability index runs as follows: under setting [1], 0.718 ± 0.0089; (genetic background: wild type) 0.683 ± 0.04.

As to AQNFILFHDYLH [YLR365W C-terminal 12 aa], the protein stability index by setting is: under setting [1], 0.698 ± 0.012; (genetic background: wild type) 0.711 ± 0.032.

For the sequence ASFVEVNAEVFL [FRS1 C-terminal 12 aa], the protein stability index came to 0.7129 ± 0.0051 under setting [1] and 0.7111 ± 0.0032 (genetic background: wild type).

Consider ASNGVRLSEIGW [SNZ1 C-terminal 12 aa], for which the protein stability index by setting is: under setting [1], 0.699 ± 0.011; (genetic background: wild type) 0.694 ± 0.027.

Take ASVIPGGCLGNL [ZPS1 C-terminal 12 aa]: the protein stability index was determined as 0.703 ± 0.018 under setting [1] and 0.685 ± 0.018 (genetic background: wild type).

Turning to AVASFFLRNKRR [FIS1 C-terminal 12 aa], the protein stability index is, setting by setting: under setting [1], 0.7073 ± 0.0052; (genetic background: wild type) 0.69 ± 0.027.

AVENQFFSQKKK [ACS2 C-terminal 12 aa]: the protein stability index came out at 0.707 ± 0.044 under setting [1] and 0.697 ± 0.034 (genetic background: wild type).

As for AVNALNEAMDKL [BNA5 C-terminal 12 aa], the protein stability index reads like this: under setting [1], 0.677 ± 0.015; (genetic background: wild type) 0.696 ± 0.11.

In turn, AVYEELVHELFH [PSP1 C-terminal 12 aa] had a protein stability index under setting [1] of 0.72 ± 0.021 and a protein stability index (genetic background: wild type) of 0.675 ± 0.031.

Take AYEPFSFRAIIE [STV1 C-terminal 12 aa]: the protein stability index was 0.686 ± 0.008 under setting [1] and 0.723 ± 0.035 (genetic background: wild type).

As for CAAVEKGPILDA [THI74 C-terminal 12 aa], the protein stability index came out at 0.691 ± 0.019 under setting [1] and 0.682 ± 0.021 (genetic background: wild type).

In the case of “CGCQLAVAMTTC [YFL015W-A C-terminal 12 aa]”, the protein stability index reads like this: under setting [1], 0.553 ± 0.039; (genetic background: wild type) 0.513 ± 0.013.

As for CLILSQYSILMD [ATG18 C-terminal 12 aa], the protein stability index runs as follows: under setting [1], 0.631 ± 0.038; (genetic background: wild type) 0.616 ± 0.045.

As for CLMVSFLLLFGV [OLI1 C-terminal 12 aa], the protein stability index came out at 0.315 ± 0.0097 under setting [1] and 0.3088 ± 0.0016 (genetic background: wild type).

Turning to CLSGGLLRKIPK [TMH18 C-terminal 12 aa], the protein stability index runs as follows: under setting [1], 0.722 ± 0.087; (genetic background: wild type) 0.6861 ± 0.006.

CPPTIEIGGGGH [MIR1 C-terminal 12 aa]: the protein stability index under setting [1] came out at 0.712 ± 0.0075 and the protein stability index (genetic background: wild type) is 0.706 ± 0.0053.

On to CSLINSCAFFCL [YDR413C C-terminal 12 aa], for which the protein stability index is, setting by setting: under setting [1], 0.704 ± 0.012; (genetic background: wild type) 0.647 ± 0.013.

On to CSTRRSYLRYKK [YBR285W C-terminal 12 aa], for which the protein stability index is, setting by setting: under setting [1], 0.705 ± 0.0047; (genetic background: wild type) 0.6634 ± 0.0014.

Consider CVNSASLNLKKD [MXR2 C-terminal 12 aa], for which the protein stability index by setting is: under setting [1], 0.695 ± 0.023; (genetic background: wild type) 0.682 ± 0.035.

Regarding “CVTQACGRTIKM [YBR141W-A C-terminal 12 aa]”, the protein stability index by setting is: under setting [1], 0.732 ± 0.037; (genetic background: wild type) 0.779 ± 0.13.

In turn, DAIDNSDEITQD [IRR1 C-terminal 12 aa] registered a protein stability index under setting [1] of 0.709 ± 0.029 and a protein stability index (genetic background: wild type) of 0.703 ± 0.064.

In turn, DALYRIIYGNIL [TIP20 C-terminal 12 aa] came in with a protein stability index under setting [1] of 0.711 ± 0.02 and a protein stability index (genetic background: wild type) of 0.743 ± 0.037.

DATRREVMTERK [LSM2 C-terminal 12 aa]: the protein stability index under setting [1] amounted to 0.672 ± 0.014 and the protein stability index (genetic background: wild type) was determined as 0.688 ± 0.059.

For the sequence DAYHKAAEENKD [MCT1 C-terminal 12 aa], the protein stability index by setting is: under setting [1], 0.6729 ± 0.0053; (genetic background: wild type) 0.693 ± 0.016.

Consider DDEFGDLDAVFF [SNF6 C-terminal 12 aa], for which the protein stability index worked out at 0.747 ± 0.021 under setting [1] and 0.739 ± 0.0056 (genetic background: wild type).

As to DDIANNQSICCV [YPT11 C-terminal 12 aa], the protein stability index by setting is: under setting [1], 0.649 ± 0.02; (genetic background: wild type) 0.649 ± 0.018.

Regarding DDSKILIEHLSE [PET54 C-terminal 12 aa], the protein stability index under setting [1] is 0.697 ± 0.024 and the protein stability index (genetic background: wild type) came out at 0.662 ± 0.04.

Take DEFIKKNSDKIR [EXO84 C-terminal 12 aa]: the protein stability index under setting [1] was 0.676 ± 0.047 and the protein stability index (genetic background: wild type) stood at 0.64 ± 0.037.

As to DEMQDFLKKHAS [SWI6 C-terminal 12 aa], the protein stability index by setting is: under setting [1], 0.7311 ± 0.0031; (genetic background: wild type) 0.643 ± 0.033.

With DERLEQLKRLGI [HOM3 C-terminal 12 aa], the protein stability index runs as follows: under setting [1], 0.7246 ± 0.0048; (genetic background: wild type) 0.677 ± 0.019.

As to DERRQPVSNLRM [YDL163W C-terminal 12 aa], the protein stability index by setting is: under setting [1], 0.712 ± 0.018; (genetic background: wild type) 0.658 ± 0.01.

Turning to DEVTYLMFSSIM [SPG1 C-terminal 12 aa], the protein stability index was determined as 0.713 ± 0.011 under setting [1] and 0.658 ± 0.026 (genetic background: wild type).

As for DEWLNLHINIVE [SHU2 C-terminal 12 aa], the protein stability index runs as follows: under setting [1], 0.741 ± 0.0062; (genetic background: wild type) 0.717 ± 0.014.

Turning to DEWRAKYGGQQV [MES1 C-terminal 12 aa], the protein stability index was determined as 0.675 ± 0.037 under setting [1] and 0.676 ± 0.029 (genetic background: wild type).

DFENKLKKKKRK [TMA64 C-terminal 12 aa] registered a protein stability index under setting [1] of 0.7268 ± 0.0047 and a protein stability index (genetic background: wild type) of 0.715 ± 0.018.

For DIDDDVGEDSED [RMR1 C-terminal 12 aa], the protein stability index runs as follows: under setting [1], 0.694 ± 0.014; (genetic background: wild type) 0.662 ± 0.013.

DIIYFRAGAGKN [OLA1 C-terminal 12 aa]: the protein stability index is 0.691 ± 0.017 under setting [1] and 0.6666 ± 0.0055 (genetic background: wild type).

Regarding DILKILSSSFHN [SPC29 C-terminal 12 aa], the protein stability index is 0.7095 ± 0.0039 under setting [1] and 0.709 ± 0.014 (genetic background: wild type).

Turning to DISVQQVKIASK [SPF1 C-terminal 12 aa], the protein stability index by setting is: under setting [1], 0.682 ± 0.018; (genetic background: wild type) 0.6857 ± 0.0041.

For the sequence DKAAPALKKVKM [SFL1 C-terminal 12 aa], the protein stability index reads like this: under setting [1], 0.675 ± 0.026; (genetic background: wild type) 0.71 ± 0.041.

In turn, DKIDVVLKKISQ [ECM15 C-terminal 12 aa] registered a protein stability index under setting [1] of 0.7095 ± 0.0048 and a protein stability index (genetic background: wild type) of 0.683 ± 0.067.

Consider DKLAQRLRALRG [DID2 C-terminal 12 aa], for which the protein stability index was 0.699 ± 0.01 under setting [1] and 0.684 ± 0.048 (genetic background: wild type).

For the sequence DKLSWSVRWEPR [URA4 C-terminal 12 aa], the protein stability index is 0.712 ± 0.021 under setting [1] and 0.721 ± 0.022 (genetic background: wild type).

Turning to DLEFEEQREPKL [NVJ2 C-terminal 12 aa], the protein stability index came out at 0.719 ± 0.006 under setting [1] and 0.668 ± 0.011 (genetic background: wild type).

As for DLKTGNAVKGEL [SSZ1 C-terminal 12 aa], the protein stability index is, setting by setting: under setting [1], 0.669 ± 0.019; (genetic background: wild type) 0.6914 ± 0.0056.

In the case of DLLDMIDSLGKL [FSH3 C-terminal 12 aa], the protein stability index under setting [1] was 0.688 ± 0.023 and the protein stability index (genetic background: wild type) turned out to be 0.694 ± 0.056.
